Changes are numbered by the printed parent chain.
B1: P191Y (protein)
chain: MPQEARTPQQQVTADEVGDWYDKFGEVYHLTLGESVHCGLWFPPDAPVPQDMELVTMSSQAQDRFTDYLIETLDPKAGQHLLDIGCGTGRPALKAARQRGIAVTGVAVSKEQIAAANRLAAGHGLTERLTFEVADAMRLPYEDESFDCAWAIESLDHMDRAKALGEAWRVLKPGGDLLVAEEVVTEELTEYETALFETLFALNVPPRLGEFFDIVSGAGFHTLSLKDLSADLAMTMNVFALGVYSRRAEFTERFGAEFVDGLLAGLGSAQETVIRKTRFFMATLRKPAV
modifications: Modified from pMT1
B2: T13G (protein)
chain: B1 chain with T13G, Y191P
modifications: Modified from pMT1
B3: M137N (protein)
chain: B1 chain with M137N, Y191P
modifications: Modified from pMT1
B4: M137S (protein)
chain: B1 chain with M137S, Y191P
modifications: Modified from pMT1
B5: S268K (protein)
chain: B1 chain with Y191P, S268K
modifications: Modified from pMT1
B6: E192S (protein)
chain: B1 chain with Y191P, E192S
modifications: Modified from pMT1
B7: A14M (protein)
chain: B1 chain with A14M, Y191P
modifications: Modified from pMT1
B8: A14P (protein)
chain: B1 chain with A14P, Y191P
modifications: Modified from pMT1
B9: A269L (protein)
chain: B1 chain with Y191P, A269L
modifications: Modified from pMT1
B10: M137D (protein)
chain: B1 chain with M137D, Y191P
modifications: Modified from pMT1
B11: L195V (protein)
chain: B1 chain with Y191P, L195V
modifications: Modified from pMT1
B12: A14G (protein)
chain: B1 chain with A14G, Y191P
modifications: Modified from pMT1
B13: L129C (protein)
chain: B1 chain with L129C, Y191P
modifications: Modified from pMT1
B14: T13A (protein)
chain: B1 chain with T13A, Y191P
modifications: Modified from pMT1
B15: S268R (protein)
chain: B1 chain with Y191P, S268R
modifications: Modified from pMT1
B16: T13M (protein)
chain: B1 chain with T13M, Y191P
modifications: Modified from pMT1
B17: K94R (protein)
chain: B1 chain with K94R, Y191P
modifications: Modified from pMT1
B18: E127G (protein)
chain: B1 chain with E127G, Y191P
modifications: Modified from pMT1
B19: M137H (protein)
chain: B1 chain with M137H, Y191P
modifications: Modified from pMT1
B20: T13L (protein)
chain: B1 chain with T13L, Y191P
modifications: Modified from pMT1
B21: S268L (protein)
chain: B1 chain with Y191P, S268L
modifications: Modified from pMT1
B22: S268Q (protein)
chain: B1 chain with Y191P, S268Q
modifications: Modified from pMT1
B23: L129K (protein)
chain: B1 chain with L129K, Y191P
modifications: Modified from pMT1
B24: T13Q (protein)
chain: B1 chain with T13Q, Y191P
modifications: Modified from pMT1
B25: M137A (protein)
chain: B1 chain with M137A, Y191P
modifications: Modified from pMT1
B26: A14R (protein)
chain: B1 chain with A14R, Y191P
modifications: Modified from pMT1
B27: A14T (protein)
chain: B1 chain with A14T, Y191P
modifications: Modified from pMT1
B28: A14L (protein)
chain: B1 chain with A14L, Y191P
modifications: Modified from pMT1
B29: L129V (protein)
chain: B1 chain with L129V, Y191P
modifications: Modified from pMT1
B30: M137G (protein)
chain: B1 chain with M137G, Y191P
modifications: Modified from pMT1
B31: L195I (protein)
chain: B1 chain with Y191P, L195I
modifications: Modified from pMT1
B32: P191K (protein)
chain: B1 chain with Y191K
modifications: Modified from pMT1

Experiment: In-vivo cis-α-irone production screening of pMT7 and pMT12 mutants
Assay type: cell-based, Escherichia coli
Conditions: mutations made to pMT12; normalized to pMT12 (=1)
Source text: Q60 was identified as another possible mutation site.
FIGS. 24a and 24b show the in-vivo and in-vitro cis-α-irone production of other possible single mutations to pMT12. The in-vitro results in FIG. 24b validate the mutations and in-vivo results in FIG. 24a. The mutations in FIG. 24 include Q11H (SEQ ID No. 23), V12R (SEQ ID No. 24), A95C (SEQ ID No. 25), H123Q (SEQ ID No. 26), E127T (SEQ ID No. 27), M137T (SEQ ID No. 28), D176V (SEQ ID No. 29), D176Y (SEQ ID No. 30). P191S (SEQ ID No. 31), P191V (SEQ ID No. 32), F212L (SEQ ID No. 33), S268H (SEQ ID No. 34), AND T272A (SEQ ID No. 35). The screening results in FIGS. 24 and 25 are semi-quantitative to identify beneficial mutants that give greater than one-fold change of irone production as compared to pMT12.
FIGS. 25a to 25c (and Table 4) show the in-vivo testing results of other possible mutations that may be made to pMT12 to improve its in-vivo production of cis-α-irone. FIGS. 25a to 25c each include two dotted lines to account for a 10% error bar to show the normalized fold change of 0.9 and 1.1.
The four plasmids were transformed into E. coli BL21 (DE3), ΔaroA, ΔaroB, ΔaroC, ΔserC or E. coli BL21 (DE3), ΔaroA, ΔaroB, ΔaroC, ΔserC, ΔmetJ strains and plated on Agar plate containing LB media (10 g, tryptone. 5 g, yeast extract. 10 g, NaCl) supplemented with appropriate antibiotics (100 mg/L ampicillin, 34 mg/L chloramphenicol, 50 mg/L kanamycin, and 100 mg/L spectinomycin). One colony was picked and inoculate into LB media with antibiotics. 1% of overnight culture was inoculated into 1 ml fresh auto-inducing chemically defined media. The chemical media contains carbon source solution: 0.5 g/L glucose, 10 g/L glycerol; inducer: 30 mM lactose and base media: 2 g/L ammonium sulfate, 4.2 g/L KH2PO4, 11.24 g/L K2HPO4, 1.7 g/L citric acid, 0.5 g/L MgSO4, and 10 mL/L trace element solution. The trace element solution (100×) contained 0.25 g/L CoCl2·6H2O, 1.5 g/L MnSO4·4H2O, 0.15 g/L CuSO4·2H2O, 0.3 g/L H3BO3, 0.25 g/L Na2MoO4·2H2O, 0.8 g/L Zn(CH3COO)2, 5 g/L Fe(III) citrate, and 0.84 g/L ethylenediaminetetra-acetic acid (EDTA) at pH 8.0. The culture was grown at 28° C. for 3 days and the products were extracted with 1 ml hexane for GCMS analysis. An example of a fed-batch process for α-ionone Is briefly described, overnight culture was inoculated into 2 L chemical media comprising the base media and 5 g/L glucose, at 37° C. and 30% DO. pH was controlled at 7 with base solution (14% ammonia and 0.5 M NaOH). Feed media (500 g/L glucose and 5 g/L MgSO4) was added into bioreactor once OD600 reached 5, at a rate of 7.15-25.75 g/h glucose for about 4-5 h until OD600 reached ˜30-40. Subsequently, 0.1 mM IPTG was added to induce the production, and feeding rate was kept at a constant rate of 10 g/h glucose, and the temperature was reduced to 30° C. DO was adjusted to 2% or 10%. Feeding was stopped at 113 h when 2 L feeding media was finished, but the culture was further incubated for 24 h. To capture the evaporated products, the exhaust was connected to 25 ml sunflower oil.

| Molecule | Fold change in in-vivo cis-α-irone production |
| --- | --- |
| B1 | 1.29 |
| B2 | 0.91 |
| B3 | 1.11 |
| B4 | 1.11 |
| B5 | 1.35 |
| B6 | 0.97 |
| B7 | 0.94 |
| B8 | 0.92 |
| B9 | 1.29 |
| B10 | 1.13 |
| B11 | 1.02 |
| B12 | 0.92 |
| B13 | 1.08 |
| B14 | 0.91 |
| B15 | 1.23 |
| B16 | 0.97 |

| Molecule | Fold change in in-vivo cis-α-irone production |
| --- | --- |
| B17 | 0.97 |
| B18 | 0.98 |
| B19 | 1.11 |
| B20 | 0.97 |
| B21 | 1.18 |
| B22 | 1.32 |
| B23 | 1.00 |
| B24 | 0.93 |
| B25 | 1.15 |
| B26 | 0.93 |
| B27 | 0.90 |
| B28 | 0.92 |
| B29 | 1.03 |
| B30 | 1.15 |
| B31 | 1.08 |
| B32 | 1.26 |
